Experimental data taken from the supplement of paper PMC11316812.
± gives the standard deviation of the averaged measurements.

Tests used:
hTERT-HMEC = experiment: percentage of EdU-negative (G0-arrested) nuclei per well, 72 h; higher = more G0 arrest; settings: reference: sequence is the full UniProt precursor, the tested protein was the secreted form or ectodomain
MCF7 = experiment: as above; settings: reference: sequence is the full UniProt precursor, the tested protein was the secreted form or ectodomain
[1] = protein concentration 0.0225 µM
[2] = protein concentration 0.03125 µM
[3] = protein concentration 0.3125 µM
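Note: secreted proteins added to cultured cells, EdU pulse at the end, nuclei found by Hoechst imaging, EdU status from nuclear versus surrounding ring intensity ratio, PBS as neutral control.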

Sequence | percentage of EdU-negative (hTERT-HMEC; [1]) [%] | percentage of EdU-negative (hTERT-HMEC; protein concentration 0.225 µM) [%] | percentage of EdU-negative (MCF7; [1]) [%] | percentage of EdU-negative (MCF7; protein concentration 0.225 µM) [%] | further results
MPAIAVLAAAAAAWCFLQVESRHLDALAGGAGPNHGNFLDNDQWLSTVSQYDRDKYWNRFRDDDYFRNWNPNKPFDQALDPSKDPCLKVKCSPHKVCVTQDYQTALCVSRKHLLPRQKKGNVAQKHWVGPSNLVKCKPCPVAQSAMVCGSDGHSYTSKCKLEFHACSTGKSLATLCDGPCPCLPEPEPPKHKAERSACTDKELRNLASRLKDWFGALHEDANRVIKPTSSNTAQGRFDTSILPICKDSLGWMFNKLDMNYDLLLDPSEINAIYLDKYEPCIKPLFNSCDSFKDGKLSNNEWCYCFQKPGGLPCQNEMNRIQKLSKGKSLLGAFIPRCNEEGYYKATQCHGSTGQCWCVDKYGNELAGSRKQGAVSCEEEQETSGDFGSGGSVVLLDDLEYERELGPKDKEGKLRVHTRAVTEDDEDEDDDKEDEVGYIW |  |  |  |  | percentage of EdU-negative (hTERT-HMEC; protein concentration 0.015 µM): 5.37 ± 0.53%; percentage of EdU-negative (hTERT-HMEC; protein concentration 0.15 µM): 10.4 ± 1.6%; percentage of EdU-negative (MCF7; protein concentration 0.015 µM): 24.9 ± 1%; percentage of EdU-negative (MCF7; protein concentration 0.15 µM): 26.5 ± 1.8%
MLPWLLVFSALGIQAWGDSSWNKTQAKQVSEGLQYLFENISQLTEKGLPTDVSTTVSRKAWGAEAVGCSIQLTTPVNVLVIHHVPGLECHDQTVCSQRLRELQAHHVHNNSGCDVAYNFLVGDDGRVYEGVGWNIQGVHTQGYNNISLGFAFFGTKKGHSPSPAALSAMENLITYAVQKGHLSSSYVQPLLGKGENCLAPRQKTSLKKACPGVVPRSVWGARETHCPRMTLPAKYGIIIHTAGRTCNISDECRLLVRDIQSFYIDRLKSCDIGYNFLVGQDGAIYEGVGWNVQGSSTPGYDDIALGITFMGTFTGIPPNAAALEAAQDLIQCAMVKGYLTPNYLLVGHSDVARTLSPGQALYNIISTWPHFKH [Q96LB8] | 5.75 ± 0.76 | 6.41 ± 1.2 | 24.7 ± 0.28 | 25 ± 1.5 | 
MCGPDDRCPARWPGPGRAVKCGKGLAAARPGRVERGGAQRGGAGLELHPLLGGRTWRAARDADGCEALGTVAVPFDDDDKIVGGYTCEENSLPYQVSLNSGSHFCGGSLISEQWVVSAAHCYKTRIQVRLGEHNIKVLEGNEQFINAAKIIRHPKYNRDTLDNDIMLIKLSSPAVINARVSTISLPTTPPAAGTECLISGWGNTLSFGADYPDELKCLDAPVLTQAECKASYPGKITNSMFCVGFLEGGKDSCQRDSGGPVVCNGQLQGVVSWGHGCAWKNRPGVYTKVYNYVDWIKDTIAANS | 5.21 ± 0.094 | 7.39 ± 0.7 | 25.3 ± 0.83 | 26.6 ± 3.7 | 
MRLLCGLWLWLSLLKVLQAQTPTPLPLPPPMQSFQGNQFQGEWFVLGLAGNSFRPEHRALLNAFTATFELSDDGRFEVWNAMTRGQHCDTWSYVLIPAAQPGQFTVDHGVEPGADREETRVVDSDYTQFALMLSRRHTSRLAVLRISLLGRSWLLPPGTLDQFICLGRAQGLSDDNIVFPDVTGWSPQASVC [Q6JVE5] | 4.84 ± 0.32 | 5.1 ± 0.82 | 28.3 ± 4 | 32.23 ± 0.31 | 
MLLLINVILTLWVSCANGQVKPCDFPDIKHGGLFHENMRRPYFPVAVGKYYSYYCDEHFETPSGSYWDYIHCTQNGWSPAVPCLRKCYFPYLENGYNQNYGRKFVQGNSTEVACHPGYGLPKAQTTVTCTEKGWSPTPRCIRVRTCSKSDIEIENGFISESSSIYILNKEIQYKCKPGYATADGNSSGSITCLQNGWSAQPICINSSEKCGPPPPISNGDTTSFLLKVYVPQSRVEYQCQPYYELQGSNYVTCSNGEWSEPPRCIHPCIITEENMNKNNIKLKGRSDRKYYAKTGDTIEFMCKLGYNANTSILSFQAVCREGIVEYPRCE | 5.2 ± 0.45 | 5.74 ± 0.65 | 28 ± 0.75 | 29.4 ± 0.63 | 
MTRALCSALRQALLLLAAAAELSPGLKCVCLLCDSSNFTCQTEGACWASVMLTNGKEQVIKSCVSLPELNAQVFCHSSNNVTKTECCFTDFCNNITLHLPTASPNAPKLGPMELAIIITVPVCLLSIAAMLTVWACQGRQCSYRKKKRPNVEEPLSECNLVNAGKTLKDLIYDVTASGSGSGLPLLVQRTIARTIVLQEIVGKGRFGEVWHGRWCGEDVAVKIFSSRDERSWFREAEIYQTVMLRHENILGFIAADNKDNGTWTQLWLVSEYHEQGSLYDYLNRNIVTVAGMIKLALSIASGLAHLHMEIVGTQGKPAIAHRDIKSKNILVKKCETCAIADLGLAVKHDSILNTIDIPQNPKVGTKRYMAPEMLDDTMNVNIFESFKRADIYSVGLVYWEIARRCSVGGIVEEYQLPYYDMVPSDPSIEEMRKVVCDQKFRPSIPNQWQSCEALRVMGRIMRECWYANGAARLTALRIKKTISQLCVKEDCKA [Q8NER5] |  |  |  |  | percentage of EdU-negative (hTERT-HMEC; [2]): 4.41 ± 0.6%; percentage of EdU-negative (hTERT-HMEC; [3]): 4.47 ± 0.65%; percentage of EdU-negative (MCF7; [2]): 24.6 ± 0.8%; percentage of EdU-negative (MCF7; [3]): 26 ± 0.41%
